The Immune Epitope Database (IEDB)

How the values were obtained:
HLA-A*02:17 = assay: IEDB peptide-MHC binding, purified MHC/competitive/radioactivity; filed as Kd, often an IC50 or EC50 that approximates it; ≥ and ≤ were set here for values at or beyond the usual limits of such assays
HLA-A*02:01 = assay: as above
HLA-A*01:01 = assay: IEDB peptide-MHC binding, purified MHC/competitive/fluorescence; filed as Kd, often an IC50 or EC50 that approximates it; ≥ and ≤ were set here for values at or beyond the usual limits of such assays
HLA-A*03:01 = assay: as above; conditions: source organism: Salmonella enterica subsp. enterica serovar Typhi
HLA-A*68:02 = assay: IEDB peptide-MHC binding, purified MHC/competitive/radioactivity; filed as Kd, often an IC50 or EC50 that approximates it; ≥ and ≤ were set here for values at or beyond the usual limits of such assays
HLA-A*02:06 = assay: as above
HLA-A*02:03 = assay: as above
HLA-A*26:01 [1] = assay: as above; conditions: source organism: Dengue virus 2 Jamaica/1409/1983
HLA-B*15:01 = assay: IEDB peptide-MHC binding, purified MHC/competitive/fluorescence; filed as Kd, often an IC50 or EC50 that approximates it; ≥ and ≤ were set here for values at or beyond the usual limits of such assays; conditions: source organism: Escherichia coli 536
HLA-A*26:01 [2] = assay: as above; conditions: source organism: Escherichia coli 536
HLA-A*32:01 = assay: IEDB peptide-MHC binding, purified MHC/competitive/radioactivity; filed as Kd, often an IC50 or EC50 that approximates it; ≥ and ≤ were set here for values at or beyond the usual limits of such assays; conditions: source organism: Dengue virus 2 Peru/IQT2913/1996
HLA-B*35:01 = assay: as above; conditions: source organism: Dengue virus 3 Martinique/1243/1999
[3] = source organism: Dengue virus 3 China/80-2/1980
[4] = source organism: Dengue virus 3 Martinique/1243/1999
[5] = source organism: Dengue virus 2 Jamaica/1409/1983
[6] = source organism: Dengue virus 2 Thailand/NGS-C/1944
[7] = source organism: Dengue virus 2 Peru/IQT2913/1996
[8] = source organism: Dengue virus 4 Philippines/H241/1956
[9] = source organism: Dengue virus 4 Dominica/814669/1981

**Q.** How did the Kd (HLA-A*02:17; [3]) turn out when VLLLVTHYAI was run?
**A.** The Kd was 0.561 µM.

**Q.** And the Kd (HLA-A*02:01; [3])?
**A.** The Kd was 0.219 µM.

**Q.** Which results are given for WVAGVQLLY?
**A.** Kd (HLA-A*01:01; source organism: Salmonella enterica subsp. enterica serovar Typhi): 0.039 µM; Kd (HLA-A*03:01): 0.486 µM

**Q.** For FTMGVLCLA, which Kd (HLA-A*68:02; [4]) is on record?
**A.** The Kd was 0.0125 µM.

**Q.** What about the Kd (HLA-A*02:17; [3]) of the same sequence?
**A.** Its Kd is 6.74 µM.

**Q.** What about the Kd (HLA-A*02:06; [4]) of the same sequence?
**A.** The Kd was 0.00317 µM.

**Q.** And the Kd (HLA-A*02:03; [4])?
**A.** Its Kd is 0.0287 µM.

**Q.** And the Kd (HLA-A*02:01; [3])?
**A.** The Kd was 0.0123 µM.

**Q.** How did the Kd (HLA-A*02:17; [5]) turn out when SLLFKTEDGV was run?
**A.** Its Kd is 0.719 µM.

**Q.** What about the Kd (HLA-A*02:01; [5]) of the same sequence?
**A.** The Kd was 0.0674 µM.

**Q.** With LLVISGLFPV as the sequence, how does the Kd (HLA-A*02:17; [6]) read?
**A.** Its Kd is 0.0455 µM.

**Q.** What about the Kd (HLA-A*02:06; [7]) of the same sequence?
**A.** Its Kd is 0.00113 µM.

**Q.** What about the Kd (HLA-A*02:03; [7]) of the same sequence?
**A.** The Kd was 0.00484 µM.

**Q.** For SLSVSLVLV, which Kd (HLA-A*02:17; [5]) is on record?
**A.** Its Kd is 4.45 µM.

**Q.** What about the Kd (HLA-A*02:03; [5]) of the same sequence?
**A.** The Kd was 0.00186 µM.

**Q.** And the Kd (HLA-A*02:01; [5])?
**A.** The Kd was 0.0585 µM.

**Q.** What does the source list for TLMLVALLGA?
**A.** Kd (HLA-A*02:17; [8]): 11 µM; Kd (HLA-A*02:06; [8]): 0.378 µM; Kd (HLA-A*02:03; [8]): 0.0144 µM; Kd (HLA-A*02:01; [8]): 0.00542 µM

**Q.** For TLLCLIPTA, which Kd (HLA-A*02:17; [8]) is on record?
**A.** The Kd was 9.56 µM.

**Q.** And the Kd (HLA-A*02:01; [8])?
**A.** Its Kd is 0.00577 µM.

**Q.** How did the Kd (HLA-A*68:02; [5]) turn out when WTMKILIGV was run?
**A.** Its Kd is 0.00895 µM.

**Q.** And the Kd (HLA-A*26:01 [1])?
**A.** The Kd was 5.36 µM.

**Q.** What about the Kd (HLA-A*02:17; [5]) of the same sequence?
**A.** The Kd was 6.06 µM.

**Q.** What about the Kd (HLA-A*02:06; [5]) of the same sequence?
**A.** Its Kd is 0.0177 µM.

**Q.** And the Kd (HLA-A*02:01; [5])?
**A.** The Kd was 0.0225 µM.

**Q.** With AVASLLDEY as the sequence, how does the Kd (HLA-B*15:01) read?
**A.** Its Kd is 0.0962 µM.

**Q.** What about the Kd (HLA-A*26:01 [2]) of the same sequence?
**A.** The Kd was 0.871 µM.

**Q.** And the Kd (HLA-A*01:01; source organism: Escherichia coli 536)?
**A.** The Kd was 0.721 µM.

**Q.** What does the source list for GLFPVSIPI?
**A.** Kd (HLA-A*32:01): 0.00647 µM; Kd (HLA-A*02:17; [6]): 0.0699 µM; Kd (HLA-A*02:03; [7]): 0.00432 µM; Kd (HLA-A*02:01; [6]): 0.00213 µM

**Q.** Which results are given for MLWMAEIPL?
**A.** Kd (HLA-B*35:01): 0.408 µM; Kd (HLA-A*02:17; [4]): 0.00918 µM; Kd (HLA-A*02:01; [4]): 0.00411 µM

**Q.** What does the source list for KMSPGYVLGV?
**A.** Kd (HLA-A*02:17; [9]): 0.324 µM; Kd (HLA-A*02:06; [9]): 0.0704 µM; Kd (HLA-A*02:03; [9]): 0.00057 µM; Kd (HLA-A*02:01; [9]): 0.00444 µM
